{"source": "patent US20250064890A1", "about": "“PROTEIN COMPOSITIONS FOR THE TREATMENT OF INFLAMMATORY DISEASES” (Unichem Laboratories Limited, priority 2021, published 2025)", "molecules": {"B1": {"name": "SEQ ID NO 2: recombinant lectin, variant of the S. rolfsii lectin amino acid sequence (reported as Rec-2 in WO 2010/095143) (protein)", "chain": "TYKITVRVYQTNPDAFFHPVEKTVWKYANGGTWTITDDQHVLTMGGSGTSGTLRFHADNGESFTATFGVHNYKRWCDIVTNLAADETGMVINQQYYSQKNREEARERQLSNYQVKNAKGRNFQIVYTEAEGNDLHANLIIG"}}, "key": {"[1]": {"tested_on": "5-Fluorouracil induced OM", "experiment": "Histopathology score of cheek pouch, 5-FU induced OM in hamsters", "type": "in vivo, golden Syrian hamsters", "conditions": "for Histopathology score, Mean: scale 1-5", "procedure": "(§1) To induce OM, animals were administered (except normal control) 5-Fluorouracil (5-FU) by intraperitoneal route at doses of 60 mg/kg & 40 mg/kg respectively on first two days. On Day 4, under anesthesia, with aim of enhancing OM, mechanical irritation of the oral mucosa were done using wire brush. Treatment was initiated from Day 4 to Day 12. For group 3 animals 100 μl of vehicle comprising of standard drug Dexamethasone at 0.1 mg was instilled in buccal cheek pouch. For group 4, 5 and 6 animals 100 μl of vehicle comprising of SEQ ID NO. 2 at 0.25 mg, 0.5 mg & 1 mg, respectively was instilled in buccal cheek pouch. At the end of treatment period, cheek pouch of the hamsters was exposed, Mucositis scoring was carried out and images were captured. The animals were then humanely sacrificed, cheek pouch/jugular mucosa were isolated and used for biomarker estimation and histopathological investigation by using ELISA method and Hematoxylin and Eosin (H&E) staining, respectively.\nFor histopathology the oral mucosa tissues were sectioned 5 μm thickness and stained with hematoxylin-eosin staining. For study histopathological the sections were analyzed by light microscopy.\nThe pouch/jugular mucosa were observed and scored for infiltration of inflammatory cells, vasodilatation, presence of hemorrhagic areas, edema, ulcerations, and abscesses."}, "[2]": {"tested_on": "oral (buccal) mucosa cells (TR146)", "experiment": "Cytoprotective effect against 5-FU induced damage (MTT)", "type": "cell-based, human", "procedure": "The cell viability was assessed by (MTT) assay and compared with positive control (Cells treated with Amifostine, EGCG and EGF and negative assay (untreated cells), wherein the control was the cells that underwent chemotherapy/radiotherapy.\nThe protective effect of the recombinant lectin on survival of TR146 cells against 5-FU induced damage was determined using following calculations:\nThe viability of cells was determined as: % Cell viability=(100−% Cytotoxicity); • where, the percentage cytotoxicity corresponding to each treatment was calculated as: % Cytotoxicity=[(R−X)/R]*100, wherein X=Absorbance of cells treated with 5-FU or radiation damage/TI+5-FU, R=Absorbance of Control cells (Untreated) and Percentage protection was calculated as:\n{(Absorbance of TI+5-FU or radiation)−(Absorbance of 5-FU or radiation alone)/(Absorbance of Untreated)−(Absorbance of 5-FU alone)}*100"}, "[3]": {"experiment": "Body weight change in 5-FU induced OM hamsters", "type": "in vivo, golden Syrian hamsters", "conditions": "Day 4 to Day 12, with respect to Day 4", "procedure": "In-vivo experiments conducted in healthy golden Syrian hamsters wherein animals were grouped as below:\nas §1\nBody weight of each animal was recorded daily till the end of experiment. Percentage change in body weight of the animals was calculated by using formula with respect to Day 4."}, "Interleukin-1β": {"tested_on": "Interleukin-1β", "experiment": "Interleukin-1β in jugular mucosa (ELISA), 5-FU induced OM in hamsters", "type": "in vivo, golden Syrian hamsters", "conditions": "for IL-1β levels, % Decrease vs G2: G2 = OM + Vehicle", "procedure": "as §1\nFurther, for biomarker estimation jugular mucosa was dissected out, tissue weighed and stored in ice cold 1×PBS. 100 mg of tissue was taken and in 1 ml of 1×PBS buffer. Supernatant of homogenate was used for analysis of TNF-α and Interleukin-1β using ELISA method as per manufacturers instruction. The levels of TNF-α and Interleukin-1β are given in Table 13, FIG. 2 and Table 14, FIG. 3, respectively."}, "[4]": {"tested_on": "oral (buccal) mucosa cells (TR146)", "experiment": "Restoration of mitochondrial membrane potential (JC-1) against radiation induced damage", "type": "cell-based, human", "conditions": "for MMP: red/green JC-1 fluorescence ratio", "procedure": "Oral buccal mucosal cells (TR146) were incubated overnight in 5% CO2 incubator at 37° C. for 24 h. […] After 24 h of treatment, cells were exposed to damage (5-FU 5 mM) for 1.25 h for chemotherapy induced inflammation and exposed to gamma radiation (3.5 kGy) using Cobalt 60 for radiation induced inflammation. After the exposure, the anti-apoptotic effect of SEQ ID NO 2 was determined by restoration of mitochondrial membrane depolarization by JC-1 staining and reduction in apoptotic cell populations (Annexin positive and subG0/G1 cells in cell cycle analysis).\nAfter incubation, the supernatants were discarded and 100 μl of JC1-dye solution (prepared by diluting 1 mM DMSO stock into 10 μM in 1×PBS) was added to each well. The cells were then incubated with the dye in CO2 incubator at 37° C. for 15 min, after which the supernatant was removed, and the cells were washed twice with 1×PBS. 100 μl of 1×PBS was finally added to each well. Red fluorescence (excitation 550 nm, emission 600 nm) and green fluorescence (excitation 485 nm, emission 535 nm) were measured using Biotek Synergy HT plate reader. The mitochondrial membrane potential (Δψm) was calculated as the ratio of intensity of red fluorescence to intensity of green fluorescence.\nThe percentage increase/restoration in mitochondrial membrane potential (MMP) was calculated as: % Increase=[(R−X)/R]*100 • Where, X=Δψm corresponding to TI+5-FU treated cells or TI+radiation treated cells; R=Δψm corresponding to control cells (FU damaged or Radiation damaged alone)"}, "[5]": {"conditions": "hamsters suffering from OM, in words"}, "[6]": {"conditions": "100 μg/ml + Radiation (3.5 kGy)"}}, "data": [{"molecule": "B1", "values": [{"measurement": "Histopathology score, Mean", "setting": "[1]; G4, 0.25 mg/Animal", "result": 3}, {"measurement": "Histopathology score, Mean", "setting": "[1]; G5, 0.5 mg/Animal", "result": 2}, {"measurement": "Histopathology score, Mean", "setting": "[1]; G6, 1 mg/Animal", "result": 2.8}, {"measurement": "histology score as compared to the untreated subjects", "setting": "[1]; [5]", "result": "reduction"}, {"measurement": "cell viability against 5-FU induced cell damage", "setting": "[2]", "result": "56.8-78.4%"}, {"measurement": "% Protection", "setting": "[2]; 1 μg/ml + 5-FU (5 mM)", "result": 26, "unit": "%"}, {"measurement": "% Protection", "setting": "[2]; 10 μg/ml + 5-FU (5 mM)", "result": 50.6, "unit": "%"}, {"measurement": "% Protection", "setting": "[2]; 25 μg/ml + 5-FU (5 mM)", "result": 51, "unit": "%"}, {"measurement": "% Protection", "setting": "[2]; 50 μg/ml + 5-FU (5 mM)", "result": 63, "unit": "%"}, {"measurement": "% Protection", "setting": "[2]; 100 μg/ml + 5-FU (5 mM)", "result": 53, "unit": "%"}, {"measurement": "decrease of body weight", "setting": "[3]; G4, 0.25 mg/Animal in buccal cheek pouch", "result": 3.61, "unit": "%"}, {"measurement": "decrease of body weight", "setting": "[3]; G5, 0.5 mg/Animal in buccal cheek pouch", "result": 4.36, "unit": "%"}, {"measurement": "decrease of body weight", "setting": "[3]; G6, 1 mg/Animal in buccal cheek pouch", "result": 6.8, "unit": "%"}, {"measurement": "IL-1β levels, Mean", "setting": "Interleukin-1β; G4, 0.25 mg/Animal", "result": 79.10}, {"measurement": "IL-1β levels, % Decrease vs G2", "setting": "Interleukin-1β; G4, 0.25 mg/Animal", "result": 54.45, "unit": "%"}, {"measurement": "IL-1β levels, Mean", "setting": "Interleukin-1β; G5, 0.5 mg/Animal", "result": 105.66}, {"measurement": "IL-1β levels, % Decrease vs G2", "setting": "Interleukin-1β; G5, 0.5 mg/Animal", "result": 39.16, "unit": "%"}, {"measurement": "IL-1β levels, Mean", "setting": "Interleukin-1β; G6, 1 mg/Animal", "result": 101.96}, {"measurement": "IL-1β levels, % Decrease vs G2", "setting": "Interleukin-1β; G6, 1 mg/Animal", "result": 41.29, "unit": "%"}, {"measurement": "levels of IL-1β as compared to the untreated subjects", "setting": "Interleukin-1β; [5]", "result": "reduction"}, {"measurement": "MMP", "setting": "[4]; 0.01 μg/ml + Radiation (3.5 kGy)", "result": 5.76}, {"measurement": "% Increase in MMP (with respect to control)", "setting": "[4]; 1 μg/ml + Radiation (3.5 kGy)", "result": 36.6, "unit": "%"}, {"measurement": "% Increase in MMP (with respect to control)", "setting": "[4]; 10 μg/ml + Radiation (3.5 kGy)", "result": 17.8, "unit": "%"}, {"measurement": "MMP", "setting": "[4]; 10 μg/ml + Radiation (3.5 kGy)", "result": 5.43}, {"measurement": "MMP", "setting": "[4]; 50 μg/ml + Radiation (3.5 kGy)", "result": 6.29}, {"measurement": "% Increase in MMP (with respect to control)", "setting": "[4]; [6]", "result": 7.9, "unit": "%"}, {"measurement": "MMP", "setting": "[4]; [6]", "result": 4.97}]}]}
